Laboratory results taken from patent US20150087812A1 (Janssen / Centocor, published 2015).
Where a chain is given by its changes, count along the chain named.

B1: Fab F123 (VH H120, VL PH9L4) (Fab, V domains shown)
VH: QVQLVQSGAEVKKPGSSVKVSCKASGGTFSSYAISWVRQAPGQGLEWMGGIIPIFGTANYAQKFQGRVTITADESTSTAYMELSSLRSEDTAVYYCARHDVNSLWAYFDYWGQGTLVTVSS
VL: not shown
notes: Soluble Fab-His
B2: Fab F142 (VH H146, VL L121) (Fab, V domains shown)
VH: B1 VH with H99G, V101Y, S103A, L104I, W105Y, A106Y, Y107A, F108L
VL: DIQMTQSPSSLSASVGDRVTITCRASQSISSYLNWYQQKPGKAPKLLIYAASSLQSGVPSRFSGSGSGTDFTLTISSLQPEDFATYYCQQPISFPYTFGQGTKVEIK
notes: Soluble Fab-His
B3: Fab F17 (VH H11, VL L14) (Fab, V domains shown)
VH: EVQLVQSGAEVKKPGESLKISCKGSGYSFTSYWIGWVRQMPGKGLEWMGIIYPGDSDTRYSPSFQGQVTISADKSISTAYLQWSSLKASDTAMYYCARPYGTFDYWGQGTLVTVSS
VL: EIVLTQSPATLSLSPGERATLSCRASQSVADSLAWYQQKPGQAPRLLIYKASNRATGIPARFSGSGSGTDFTLTISSLEPEDFAVYYCQQSNGWPRTFGQGTKVEIK
notes: Soluble Fab-His (E. coli supernatant); converted to mAb B3
B4: Fab F121 (VH H115, VL L106) (Fab, V domains shown)
VH: B1 VH with H99G, V101A, S103A, W105Y, A106D
VL: B3 VL with A30S, D31N, S32W, K50T, S91R, N92Y, G93T, W94A, R96W
notes: Soluble Fab-His
B5: Fab F133 (VH H134, VL L117) (Fab, V domains shown)
VH: QVQLVQSGAEVKKPGSSVKVSCKASGGTFSSYAISWVRQAPGQGLEWMGGIIPIFGTANYAQKFQGRVTITADESTSTAYMELSSLRSEDTAVYYCARGADSNAVRLVGFDYWGQGTLVTVSS
VL: EIVLTQSPGTLSLSPGERATLSCRASQSVAYSSLAWYQQKPGQAPRLLIYAASSRATGIPDRFSGSGSGTDFTLTISRLEPEDFAVYYCQQSNTPPLTFGQGTKVEIK
notes: Soluble Fab-His
B6: Fab F144 (VH H149, VL L122) (Fab, V domains shown)
VH: QVQLVQSGAEVKKPGSSVKVSCKASGGTFSSYGISWVRQAPGQGLEWMGGIIPIFGTANYAQKFQGRVTITADESTSTAYMELSSLRSEDTAVYYCAREDVNYISTYSEFDYWGQGTLVTVSS
VL: B5 VL with A30R, Y31K, S33G, A51N, S92A, N93T, T94K
notes: Soluble Fab-His
B7: Fab F97 (VH H90, VL IFWL124) (Fab, V domains shown)
VH: QVQLVQSGAEVKKPGSSVKVSCKASGGTFSSYAISWVRQAPGQGLEWMGGIIPIFGTANYAQKFQGRVTITADESTSTAYMELSSLRSEDTAVYYCARDASTYGDLDYWGQGTLVTVSS
VL: B2 VL with S30D, S31G, Y32W, P91S, I92Y, F94T, Y96L
notes: Soluble Fab-His; converted to mAb B18
B8: Fab F33 (VH H24, VL L35) (Fab, V domains shown)
VH: not shown
VL: B2 VL with S30H, S31N, Y32W, P91S, I92Y, F94T, Y96L
notes: Soluble Fab-His; converted to mAb B15; the Fab's H24 may differ in FR1
B9: Fab F86 (VH H80, VL L80) (Fab, V domains shown)
VH: B1 VH with H99P, D100I, V101G, N102T, S103G, L104Y, W105Y, A106G, Y107F
VL: B2 VL with S30A, S31K, Y32W, A50F, P91S, I92Y, F94T, Y96L
notes: Soluble Fab-His; converted to mAb B7
B10: Fab F53 (VH H2, VL L30) (Fab, V domains shown)
VH: B7 VH with A100D, S101L, T102P, Y103L, D105R
VL: B3 VL with A30N, D31K, S32H, S91G, N92I, G93R, W94A, R96Y
notes: Soluble Fab-His; converted to mAb B4; also called P53
B11: Fab F16 (VH H10, VL L13) (Fab, V domains shown)
VH: EVQLVQSGAEVKKPGESLKISCKGSGYSFTSYWIGWVRQMPGKGLEWMGIIYPGDSDTRYSPSFQGQVTISADKSISTAYLQWSSLKASDTAMYYCARGLADFWYFDYWGQGTLVTVSS
VL: B2 VL with S30D, S31V, Y32W, P91S, I92Y, F94T, Y96L
notes: Soluble Fab-His; converted to mAb B2
B12: Fab F104 (VH H96, VL IFWL124) (Fab, V domains shown)
VH: B7 VH with T57N, A58T, A100I, T102G
VL: B2 VL with S30D, S31G, Y32W, P91S, I92Y, F94T, Y96L
notes: Soluble Fab-His; converted to mAb B14
B13: Fab F73 (VH H66, VL L67) (Fab, V domains shown)
VH: B7 VH with A100L, S101Y, T102I
VL: B2 VL with S30G, S31G, Y32W, A50T, P91S, I92Y, S93T, F94Y, Y96I
notes: Soluble Fab-His; converted to mAb B6
B14: Fab F13 (VH H2, VL L11) (Fab, V domains shown)
VH: B7 VH with A100D, S101L, T102P, Y103L, D105R
VL: B3 VL with S32W, K50N, S91Y, N92I, G93R, R96I
notes: Soluble Fab-His
B15: Fab F9 (VH H2, VL L8) (Fab, V domains shown)
VH: B7 VH with A100D, S101L, T102P, Y103L, D105R
VL: B3 VL with D31K, S32D, K50T, S91G, N92I, G93N, R96F
notes: Soluble Fab-His
B16: Fab F96 (VH H89, VL IFWL124) (Fab, V domains shown)
VH: B7 VH with A100S, T102A, L106F
VL: B2 VL with S30D, S31G, Y32W, P91S, I92Y, F94T, Y96L
notes: Soluble Fab-His; converted to mAb B8
B17: Fab F11 (VH H2, VL L9) (Fab, V domains shown)
VH: B7 VH with A100D, S101L, T102P, Y103L, D105R
VL: B3 VL with S32F, K50T, S91G, N92S, G93T, W94A, R96Y
notes: Soluble Fab-His
B18: Fab F102 (VH H2, VL L91) (Fab, V domains shown)
VH: B7 VH with A100D, S101L, T102P, Y103L, D105R
VL: B3 VL with S32W, N92F, G93R, R96L
notes: Soluble Fab-His
B19: Fab F45 (VH H2, VL L34) (Fab, V domains shown)
VH: B7 VH with A100D, S101L, T102P, Y103L, D105R
VL: B3 VL with A30S, D31S, S32W, K50Y, S91F, N92K, R96F
notes: Soluble Fab-His
B20: Fab F35 (VH H25, VL L29) (Fab, V domains shown)
VH: B7 VH with A100D, S101L, T102A, Y103L, D105R
VL: B3 VL with D31K, S32F, S91G, N92H
notes: Soluble Fab-His
B21: Fab F71 (VH H2, VL L65) (Fab, V domains shown)
VH: B7 VH with A100D, S101L, T102P, Y103L, D105R
VL: B3 VL with A30S, S32Y, K50D, S91G, N92S, G93D, W94A, R96L
notes: Soluble Fab-His
B22: Fab F50 (VH H25, VL L46) (Fab, V domains shown)
VH: B7 VH with A100D, S101L, T102A, Y103L, D105R
VL: B3 VL with A30S, D31S, S32F, K50T, N92H, G93R, W94A, R96W
notes: Soluble Fab-His
B23: Fab F7 (VH H2, VL L6) (Fab, V domains shown)
VH: B7 VH with A100D, S101L, T102P, Y103L, D105R
VL: B3 VL with A30N, D31S, S32W, K50Y, S91G, N92H, G93R, R96F
notes: Soluble Fab-His
B24: Fab F3 (VH H2, VL L2) (Fab, V domains shown)
VH: B7 VH with A100D, S101L, T102P, Y103L, D105R
VL: B3 VL with A30N, D31N, S32F, K50G, S91F, N92K, W94A, R96L
notes: Soluble Fab-His
B25: Fab F34 (VH H2, VL L28) (Fab, V domains shown)
VH: B7 VH with A100D, S101L, T102P, Y103L, D105R
VL: B3 VL with D31K, S32F, S91F, G93S, W94A, R96I
notes: Soluble Fab-His; converted to mAb B5
B26: Fab F8 (VH H2, VL L7) (Fab, V domains shown)
VH: B7 VH with A100D, S101L, T102P, Y103L, D105R
VL: B3 VL with A30R, S32W, K50G, S91G, N92D, R96W
notes: Soluble Fab-His
B27: Fab F43 (VH H2, VL L44) (Fab, V domains shown)
VH: B7 VH with A100D, S101L, T102P, Y103L, D105R
VL: B3 VL with D31K, S32F, S91Y, N92S, G93T, R96F
notes: Soluble Fab-His
B28: Fab F62 (VH H54, VL GCGL18) (Fab, V domains shown)
VH: B7 VH with D99E, A100D, S101V, T102A, Y103L, D105R
VL: not shown
notes: Soluble Fab-His
B29: Fab F54 (VH H44, VL IFWL195) (Fab, V domains shown)
VH: not shown
VL: B2 VL with S30A, S31N, Y32W, P91S, I92Y, F94T, Y96L
notes: Soluble Fab-His; converted to mAb B17; the Fab's H44 may differ in FR1
B30: Fab F32 (VH H7, VL PH9L4) (Fab, V domains shown)
VH: B7 VH with A100D, S101V, T102A, Y103L, D105R
VL: not shown
notes: Soluble Fab-His
B31: Fab F143 (VH H148, VL H2RL12) (Fab, V domains shown)
VH: B7 VH with A100F, T102V, L106F
VL: B2 VL with S30A, S31K, Y32W, P91S, I92Y, F94T, Y96L
notes: Soluble Fab-His; converted to mAb B13
B32: Fab F2 (VH H2, VL L1) (Fab, V domains shown)
VH: B7 VH with A100D, S101L, T102P, Y103L, D105R
VL: B3 VL with A30R, D31N, S32F, K50D, S91G, N92Y, G93R, W94A, R96I
notes: Soluble Fab-His

Biological target: T1, recombinant human ATX beta isoform with N-terminal purification tag (human, UniProt Q13822 49-863)
Assay: ELISA, Fab-His captured by anti-Fd, 5 nM biotinylated human ATX beta
Description: (§1) Fabs were captured on black MaxiSorp plates (Nunc, Cat. No. 437111) coated with 1 μg/ml sheep anti-human Fd (CH1) antibody (The Binding Site, Cat. No. PC075). Plates were washed and biotinylated human ATX was added to the captured Fabs at 5 nM. Incubation was carried out for 1 hour at room temperature with gentle shaking. Plates were washed, SA-HRP (Invitrogen, Cat. No. 43-4323) was added and chemiluminescent detection carried out.
(§2) Clones with binding above background were sequenced and unique clones identified. […] These clones were identified with binding signal to human ATX at least 6-fold above the background. Table 3 lists the identifier for VH and VL (Peptide ID) and the combination of both (Fab ID) sorted by the Fab ELISA binding data.

Fab Binding	Binder
1.4e+06 relative chemiluminescence units	B1
1.3e+06 relative chemiluminescence units	B2
2.4e+07 relative chemiluminescence units	B3
1.4e+06 relative chemiluminescence units	B4
1.2e+06 relative chemiluminescence units	B5
1.2e+06 relative chemiluminescence units	B6
5.8e+06 relative chemiluminescence units	B7
1.1e+06 relative chemiluminescence units	B8
4.2e+06 relative chemiluminescence units	B9
2.4e+06 relative chemiluminescence units	B10
3.9e+06 relative chemiluminescence units	B11
5.1e+06 relative chemiluminescence units	B12
1.7e+07 relative chemiluminescence units	B13
1.1e+06 relative chemiluminescence units	B14
1e+06 relative chemiluminescence units	B15
5.9e+06 relative chemiluminescence units	B16

Fab Binding	Binder
1.8e+06 relative chemiluminescence units	B17
1.3e+06 relative chemiluminescence units	B18
1.2e+06 relative chemiluminescence units	B19
2.1e+06 relative chemiluminescence units	B20
1.7e+06 relative chemiluminescence units	B21
1.9e+06 relative chemiluminescence units	B22
1.8e+06 relative chemiluminescence units	B23
1.4e+06 relative chemiluminescence units	B24
2.3e+06 relative chemiluminescence units	B25
1.6e+06 relative chemiluminescence units	B26
980000 relative chemiluminescence units	B27
1.6e+06 relative chemiluminescence units	B28
980000 relative chemiluminescence units	B29
2e+06 relative chemiluminescence units	B30
4.9e+06 relative chemiluminescence units	B31
1.5e+06 relative chemiluminescence units	B32

Biological target: T1, recombinant human ATX beta isoform with …
Assay: Fab-His ELISA
Description: as §1, §2

fold above background [fold]	Binder
≥ 6	B1
≥ 6	B2
≥ 6	B3
≥ 6	B4
≥ 6	B5
≥ 6	B6
≥ 6	B7
≥ 6	B8
≥ 6	B9
≥ 6	B10
≥ 6	B11
≥ 6	B12
≥ 6	B13
≥ 6	B14
≥ 6	B15
≥ 6	B16

fold above background [fold]	Binder
≥ 6	B17
≥ 6	B18
≥ 6	B19
≥ 6	B20
≥ 6	B21
≥ 6	B22
≥ 6	B23
≥ 6	B24
≥ 6	B25
≥ 6	B26
≥ 6	B27
≥ 6	B28
≥ 6	B29
≥ 6	B30
≥ 6	B31
≥ 6	B32
